Entries after “also recorded” stand apart in the source; their conditions may differ.
Columns and labels:
[1] = system: CD40-expressing target cells; assay: Antibody dependent cellular cytotoxicity (ADCC); assay type: cell-based; conditions: native antibodies
Source text: (§1) 2, 2000, and PCT International Application No. PCT/US01/30857, also titled “Human Anti-CD40 Antibodies,” filed Oct. 2, 2001, both of which are herein incorporated by reference in their entirety.
Clones from 7 other hybridomas were identified as having antagonistic activity. Based on their relative antagonistic potency and ADCC activities, two hybridoma clones were selected for further evaluation (Table 1 below). They are named 131.2F8.5.9 (5.9) and 153.8E2.D10.D6.12.12 (12.12).

soluble CD40 = soluble CD40 (Homo sapiens, UniProt P25942); assay: ELISA-type assay, binding to soluble CD40; conditions: ELISA-type assays
Source text: as §1

cell-surface CD40 = cell-surface CD40 (Homo sapiens, UniProt P25942); assay: Flow cytometric (FACS) assay of CD40 binding and CD40-ligand blocking
Source text: as §1

[2] = system: B cells from normal human subjects; assay: In vitro proliferation of normal human B cells / lymphocytes; assay type: cell-based
Source text: as §1
(§2) 4, 2003, Nov. 26, 2003, and Apr. 27, 2004, and assigned U.S. Patent Application Nos. 60/517,337 , 60/525,579, and 60/565,710, respectively, and International Patent Application No. PCT/US2004/037152, also entitled “Antagonist Anti-CD40 Monoclonal Antibodies and Methods for Their Use,” filed Nov. 4, 2004; the contents of each of which are herein incorporated by reference in their entirety.

[3] = system: cancer cells from NHL and CLL patients; assay: In vitro CD40 ligand-mediated proliferation of patient cancer cells; assay type: cell-based, human
Source text: as §2

[4] = system: primary cancer cells from NHL patients; assay: ADCC on primary cancer cells; assay type: cell-based, human; conditions: in vitro
Source text: as §2

monocytes = assay: CD40L-induced cytokine secretion, Meso Scale Discovery multi-array; assay type: cell-based, human; conditions: monocytes, Donor 1, 24 hours
Procedure: (§3) Cells (1×10^5 cells per well) were cultured in a 96-well plate in the presence or absence of CD40L ([…], formaldehyde fixed CHO cells, 2×10^5 per well). […] Production of hIL-6, hIL-8, hIL-10, hTNF-α; hGM-CSF, hIL-1b, hIL-12p70, MCP-1, and MIP-1β beta was measured by Meso Scale Discovery® multi-array system (Meso Scale Discovery, Gaithersburg, Md.).

normal B cells = assay: as above; assay type: cell-based, human; conditions: normal B cells
Procedure: as §3

Sequence of cell-surface CD40 (P25942 21-277): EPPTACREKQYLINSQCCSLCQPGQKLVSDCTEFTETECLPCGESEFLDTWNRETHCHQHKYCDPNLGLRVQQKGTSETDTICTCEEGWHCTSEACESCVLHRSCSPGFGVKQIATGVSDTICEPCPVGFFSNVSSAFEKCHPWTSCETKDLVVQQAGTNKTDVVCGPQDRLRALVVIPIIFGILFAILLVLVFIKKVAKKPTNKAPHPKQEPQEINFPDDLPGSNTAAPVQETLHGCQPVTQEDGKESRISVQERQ
Sequence of soluble CD40 (P25942 21-193 limits assumed): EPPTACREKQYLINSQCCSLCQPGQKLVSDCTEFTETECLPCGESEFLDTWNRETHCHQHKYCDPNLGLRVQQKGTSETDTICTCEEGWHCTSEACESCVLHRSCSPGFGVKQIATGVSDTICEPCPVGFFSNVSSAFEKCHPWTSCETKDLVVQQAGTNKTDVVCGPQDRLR

| binding to soluble CD40 (soluble CD40) | specific binding to human CD40 (cell-surface CD40; FACS analysis) | Molecule | ADCC activity, killing of CD40-expressing target cells [1] | displacement of CD40-ligand pre-bound to cell surface CD40 (cell-surface CD40; flow cytometric assays) | prevention of CD40-ligand binding to cell-surface CD40 (cell-surface CD40; flow cytometric assays) | effect on CD40 ligand-mediated proliferation of normal B cells ([2]; in vitro) | induction of proliferation of human lymphocytes (agonist activity) ([2]; lymphocytes from normal subjects, antibody alone) | CD40 ligand-mediated proliferation of cancer cells [3] | killing of primary cancer cells by ADCC [4] | CD40L-induced hGM-CSF secretion, folds of induction over background (monocytes) | CD40L-induced hIL1-b secretion, folds of induction over background (monocytes) | CD40L-induced hIL-12p70 secretion, folds of induction over background (monocytes) | CD40L-induced hGM-CSF secretion, folds of induction over background (normal B cells; Donor 1, 24 hours) | CD40L-induced hIL-1b secretion, folds of induction over background (normal B cells; Donor 1, 24 hours) | CD40L-induced hIL-12p70 secretion, folds of induction over background (normal B cells; Donor 1, 24 hours) | CD40L-induced hIL-1b secretion, folds of induction over background (normal B cells; Donor 2, 24 hours) | CD40L-induced hGM-CSF secretion, folds of induction over background (normal B cells; Donor 3, 24 hours) | CD40L-induced hIL-1b secretion, folds of induction over background (normal B cells; Donor 3, 24 hours) | CD40L-induced hIL-12p70 secretion, folds of induction over background (normal B cells; Donor 3, 24 hours) |
| --- | --- | --- | --- | --- | --- | --- | --- | --- | --- | --- | --- | --- | --- | --- | --- | --- | --- | --- | --- |
| bind soluble CD40 | bind specifically to human CD40 | CHIR-5.9: fully human anti-CD40 monoclonal antibody of the IgG1 isotype, hybridoma 131.2F8.5.9, ATCC PTA-5542, SEQ ID NO:6 and 7 | have ADCC activity; also recorded: able to kill CD40-expressing target cells | displace the pre-bound CD40-ligand; also recorded: can compete off CD40-ligand pre-bound to cell surface CD40 | prevent the binding of CD40-ligand to cell-surface CD40; also recorded: can prevent CD40-ligand binding | act as antagonist anti-CD40 antibodies; also recorded: inhibit in vitro CD40 ligand-mediated proliferation of normal B cells | do not induce strong proliferation | inhibiting in vitro CD40 ligand-mediated proliferation of cancer cells from NHL and CLL patients | kill primary cancer cells from NHL patients by ADCC | – | – | – | – | – | – | – | – | – | – |
| – | – | CD40L: CD40 ligand used as stimulus, presented on transfected, formaldehyde fixed CHO cells (protein, expressed on fixed CHO cells) MIETYNQTSPRSAATGLPISMKIFMYLLTVFLITQMIGSALFAVYLHRRLDKIEDERNLHEDFVFMKTIQRCNTGERSLSLLNCEEIKSQFEGFVKDIMLNKEETKKENSFEMQKGDQNPQIAAHVISEASSKTTSVLQWAEKGYYTMSNNLVTLENGKQLTVKRQGLYYIYAQVTFCSNREASSQAPFIASLCLKSPGRFERILLRAANTHSSAKPCGQQSIHLGGVFELQPGASVFVNVTDPSQVSHGTGFTSFGLLKL | – | – | – | – | – | – | – | no induction | no induction | no induction | no induction | no induction | no induction | no induction | no induction | no induction | no induction |

Reference: patent publication US8333970B2, “Methods of monitoring the efficacy of anti-CD40 antibodies in treating a subject having an inflammatory or autoimmune disease” (Novartis AG, priority 2005, dated 2012)
